Source: PMC3424567

T1: R.DpnI wH domain (UniProt P0A460 181-254)
T1 sequence: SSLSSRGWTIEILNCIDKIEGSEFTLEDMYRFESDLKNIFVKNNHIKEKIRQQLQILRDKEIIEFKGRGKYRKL

T2: R.DpnI R231A (UniProt P0A460 1-254, R231A)
T2 sequence: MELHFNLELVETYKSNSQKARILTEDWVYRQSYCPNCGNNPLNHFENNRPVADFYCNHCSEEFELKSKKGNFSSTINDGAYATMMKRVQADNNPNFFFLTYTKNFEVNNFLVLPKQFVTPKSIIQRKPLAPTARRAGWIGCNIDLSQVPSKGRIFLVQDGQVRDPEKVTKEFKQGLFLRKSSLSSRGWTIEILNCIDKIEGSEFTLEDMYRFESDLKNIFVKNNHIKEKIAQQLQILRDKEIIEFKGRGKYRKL

B1: mDNA (dsDNA)
DNA 1: ATATGGGATCGTCAGTCAGCG
DNA 2: CGCTGACTGACGATCCCATAT
modifications: m6A at position 8 of strand 1 and position 13 of strand 2 (5'-3')
B2: hmDNA (dsDNA)
DNA 1: ATATGGGATCGTCAGTCAGCG
DNA 2: CGCTGACTGACGATCCCATAT
modifications: m6A in GATC on one strand only (which strand not recoverable from text)
B3: nmDNA (dsDNA)
DNA 1: ATATGGGATCGTCAGTCAGCG
DNA 2: CGCTGACTGACGATCCCATAT

Legend:
R.DpnI wH domain = molecular target: T1, R.DpnI wH domain; assay: filter binding
R.DpnI R231A = molecular target: T2, R.DpnI R231A; assay: filter binding

Binder	binding signal (R.DpnI wH domain) [counts]	binding result (R.DpnI R231A)
B1	2e+06	–
B2	–	no binding
B3	–	no binding
